Experimental data from the supplement of paper PMC6755084.

What follows are sequences tested on F1*sub RNA substrate (template-directed ligation) (assay: fraction ligated after 30 min (ligated reads / total reads); higher = more ligase activity; sequences stand for … in GAGACCGCAACTGAAAAGTTGT…AGTTCTGCACGTAGAAGCAAAAGGC). Details: 42 °C.
How it was run: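 Oligo-pool templates underwent PCR amplification, T7 transcription and gel purification to yield ribozyme variants. Gel-separated ligated and unligated bands were converted to complementary DNA with barcoded primers and sequenced on a MiSeq, keeping core bases of quality ≥20. The ratio of ligated reads to total reads gave the fraction ligated for every variant.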

First: TTCACTGTCGTAAGACACTTTGGATGGGTTGA [2d28]
Second: TTCACTGTCGTAAGACACTTTGGATGGTTGA [3d352]
The fraction ligated of the first is higher: 0.795 for the first, 0.498 for the second.

Going from TTCACTGTCGTAAGACACTTTGGTGGGTTGA [3d350] to TTCACTGTCGTAAGACATTTGGATGGGTTGA [3d347], the fraction ligated rises from 0.0639 to 0.755.

Compared with TTCACTGTCGTAAGACCTTTGGATGGGTTGA [3d346], TTCACTGTCGTAAGCACTTTGGATGGGTTGA [3d344] is higher in fraction ligated: 0.795 for the first, 0.8 for the second.

Going from TTCACTGTCGTAGACACTTTGGATGGGTTGA [3d342] to TTCACTGTCTAAGACACTTTGGATGGGTTGA [3d340], the fraction ligated falls from 0.775 to 0.774.

Compared with TTCACTGTGTAAGACACTTTGGATGGGTTGA [3d339], TTCACTTCGTAAGACACTTTGGATGGGTTGA [3d337] is lower in fraction ligated: 0.766 for the first, 0.344 for the second.

First: TTCACTTGCGAAGACACTTTGGATGGGTTGA [3d373]
Second: TTCACTTGCGTAAACACTTTGGATGGGTTGA [3d375]
The fraction ligated of the first is higher: 0.702 for the first, 0.356 for the second.

Compared with TTCACTTGCGTAAGAACTTTGGATGGGTTGA [3d377], TTCACTTGCGTAAGACACTTGGATGGGTTGA [3d380] is lower in fraction ligated: 0.52 for the first, 0.182 for the second.

First: TTCACTTGCGTAAGACACTTTGATGGGTTGA [3d381]
Second: TTCACTTGCGTAAGACACTTTGGAGGGTTGA [3d383]
The fraction ligated of the first is higher: 0.055 for the first, 0.0421 for the second.

First: TTCACTTGCGTAAGACACTTTGGATGGGTTA [3d385]
Second: TTCACTTGCGTAAGACACTTTGGATGGGTTG [3d386]
The fraction ligated of the first is lower: 0.0657 for the first, 0.571 for the second.

Compared with TTCACTTGCGTAAGACACTTTGGATGGGTTGA [2d30], TTCACTTGCGTAAGACACTTTGGATGGTTGA [3d384] is lower in fraction ligated: 0.777 for the first, 0.17 for the second.

Going from TTCACTTGCGTAAGACACTTTGGTGGGTTGA [3d382] to TTCACTTGCGTAAGACATTTGGATGGGTTGA [3d379], the fraction ligated rises from 0.00525 to 0.768.

First: TTCACTTGCGTAAGACCTTTGGATGGGTTGA [3d378]
Second: TTCACTTGCGTAAGCACTTTGGATGGGTTGA [3d376]
The fraction ligated of the first is lower: 0.311 for the first, 0.804 for the second.

Going from TTCACTTGCGTAGACACTTTGGATGGGTTGA [3d374] to TTCACTTGCTAAGACACTTTGGATGGGTTGA [3d372], the fraction ligated falls from 0.736 to 0.729.

Compared with TTCACTTGGTAAGACACTTTGGATGGGTTGA [3d371], TTCACTTGTCAAGACACTTTGGATGGGTTGA [3d402] is higher in fraction ligated: 0.708 for the first, 0.719 for the second.

Compared with TTCACTTGTCGAAACACTTTGGATGGGTTGA [3d417], TTCACTTGTCGAAGAACTTTGGATGGGTTGA [3d419] is higher in fraction ligated: 0.0407 for the first, 0.45 for the second.

Compared with TTCACTTGTCGAAGACACTTGGATGGGTTGA [3d422], TTCACTTGTCGAAGACACTTTGATGGGTTGA [3d423] is lower in fraction ligated: 0.5 for the first, 0.17 for the second.

First: TTCACTTGTCGAAGACACTTTGGAGGGTTGA [3d425]
Second: TTCACTTGTCGAAGACACTTTGGATGGGTTA [3d427]
The fraction ligated of the first is lower: 0.157 for the first, 0.28 for the second.

Going from TTCACTTGTCGAAGACACTTTGGATGGGTTG [3d428] to TTCACTTGTCGAAGACACTTTGGATGGGTTGA [2d33], the fraction ligated falls from 0.78 to 0.775.

First: TTCACTTGTCGAAGACACTTTGGATGGTTGA [3d426]
Second: TTCACTTGTCGAAGACACTTTGGTGGGTTGA [3d424]
The fraction ligated of the first is higher: 0.578 for the first, 0.0265 for the second.

First: TTCACTTGTCGAAGACATTTGGATGGGTTGA [3d421]
Second: TTCACTTGTCGAAGACCTTTGGATGGGTTGA [3d420]
The fraction ligated of the first is higher: 0.79 for the first, 0.66 for the second.

First: TTCACTTGTCGAAGCACTTTGGATGGGTTGA [3d418]
Second: TTCACTTGTCGAGACACTTTGGATGGGTTGA [3d416]
The fraction ligated of the first is higher: 0.287 for the first, 0.206 for the second.

First: TTCACTTGTCGTAAAACTTTGGATGGGTTGA [3d442]
Second: TTCACTTGTCGTAAACACTTGGATGGGTTGA [3d445]
The fraction ligated of the first is higher: 0.623 for the first, 0.0492 for the second.

Compared with TTCACTTGTCGTAAACACTTTGATGGGTTGA [3d446], TTCACTTGTCGTAAACACTTTGGAGGGTTGA [3d448] is higher in fraction ligated: 0.0177 for the first, 0.0223 for the second.

First: TTCACTTGTCGTAAACACTTTGGATGGGTTA [3d450]
Second: TTCACTTGTCGTAAACACTTTGGATGGGTTG [3d451]
The fraction ligated of the first is lower: 0.0146 for the first, 0.177 for the second.

Compared with TTCACTTGTCGTAAACACTTTGGATGGGTTGA [2d35], TTCACTTGTCGTAAACACTTTGGATGGTTGA [3d449] is lower in fraction ligated: 0.646 for the first, 0.067 for the second.

First: TTCACTTGTCGTAAACACTTTGGTGGGTTGA [3d447]
Second: TTCACTTGTCGTAAACATTTGGATGGGTTGA [3d444]
The fraction ligated of the first is lower: 0.0202 for the first, 0.804 for the second.

Going from TTCACTTGTCGTAAACCTTTGGATGGGTTGA [3d443] to TTCACTTGTCGTAACACTTTGGATGGGTTGA [3d430], the fraction ligated rises from 0.514 to 0.728.

Going from TTCACTTGTCGTAAGAACTTGGATGGGTTGA [3d463] to TTCACTTGTCGTAAGAACTTTGATGGGTTGA [3d464], the fraction ligated falls from 0.226 to 0.119.

Going from TTCACTTGTCGTAAGAACTTTGGAGGGTTGA [3d466] to TTCACTTGTCGTAAGAACTTTGGATGGGTTA [3d468], the fraction ligated rises from 0.0901 to 0.0936.

Compared with TTCACTTGTCGTAAGAACTTTGGATGGGTTG [3d469], TTCACTTGTCGTAAGAACTTTGGATGGGTTGA [2d37] is higher in fraction ligated: 0.533 for the first, 0.748 for the second.

First: TTCACTTGTCGTAAGAACTTTGGATGGTTGA [3d467]
Second: TTCACTTGTCGTAAGAACTTTGGTGGGTTGA [3d465]
The fraction ligated of the first is higher: 0.279 for the first, 0.019 for the second.

Going from TTCACTTGTCGTAAGAATTTGGATGGGTTGA [3d462] to TTCACTTGTCGTAAGACACTGGATGGGTTGA [3d484], the fraction ligated rises from 0.693 to 0.705.

Going from TTCACTTGTCGTAAGACACTTGATGGGTTGA [3d485] to TTCACTTGTCGTAAGACACTTGGAGGGTTGA [3d487], the fraction ligated falls from 0.0622 to 0.0171.

First: TTCACTTGTCGTAAGACACTTGGATGGGTTA [3d489]
Second: TTCACTTGTCGTAAGACACTTGGATGGGTTG [3d490]
The fraction ligated of the first is lower: 0.0495 for the first, 0.288 for the second.

Going from TTCACTTGTCGTAAGACACTTGGATGGGTTGA [2d40] to TTCACTTGTCGTAAGACACTTGGATGGTTGA [3d488], the fraction ligated falls from 0.656 to 0.161.

First: TTCACTTGTCGTAAGACACTTGGTGGGTTGA [3d486]
Second: TTCACTTGTCGTAAGACACTTTATGGGTTGA [3d491]
The fraction ligated of the first is higher: 0.00989 for the first, 0.00731 for the second.

First: TTCACTTGTCGTAAGACACTTTGAGGGTTGA [3d493]
Second: TTCACTTGTCGTAAGACACTTTGATGGGTTA [3d495]
The fraction ligated of the first is higher: 0.0469 for the first, 0.0395 for the second.

Going from TTCACTTGTCGTAAGACACTTTGATGGGTTG [3d496] to TTCACTTGTCGTAAGACACTTTGATGGGTTGA [2d41], the fraction ligated rises from 0.298 to 0.553.

First: TTCACTTGTCGTAAGACACTTTGATGGTTGA [3d494]
Second: TTCACTTGTCGTAAGACACTTTGGAGGGTTA [3d502]
The fraction ligated of the first is higher: 0.0545 for the first, 0.0179 for the second.

Compared with TTCACTTGTCGTAAGACACTTTGGAGGGTTG [3d503], TTCACTTGTCGTAAGACACTTTGGAGGGTTGA [2d43] is higher in fraction ligated: 0.103 for the first, 0.227 for the second.

Going from TTCACTTGTCGTAAGACACTTTGGAGGTTGA [3d501] to TTCACTTGTCGTAAGACACTTTGGATGGGTT [3d506], the fraction ligated rises from 0.00904 to 0.0428.

First: TTCACTTGTCGTAAGACACTTTGGATGGGTTA [2d45]
Second: TTCACTTGTCGTAAGACACTTTGGATGGGTTG [2d46]
The fraction ligated of the first is lower: 0.619 for the first, 0.792 for the second.

Compared with TTCACTTGTCGTAAGACACTTTGGATGGGTTGA [1d2], TTCACTTGTCGTAAGACACTTTGGATGGTTA [3d504] is lower in fraction ligated: 0.789 for the first, 0.636 for the second.

Compared with TTCACTTGTCGTAAGACACTTTGGATGGTTG [3d505], TTCACTTGTCGTAAGACACTTTGGATGGTTGA [2d44] is higher in fraction ligated: 0.681 for the first, 0.739 for the second.

Compared with TTCACTTGTCGTAAGACACTTTGGGGGTTGA [3d497], TTCACTTGTCGTAAGACACTTTGGTGGGTTA [3d499] is lower in fraction ligated: 0.0262 for the first, 0.00711 for the second.

Going from TTCACTTGTCGTAAGACACTTTGGTGGGTTG [3d500] to TTCACTTGTCGTAAGACACTTTGGTGGGTTGA [2d42], the fraction ligated rises from 0.0269 to 0.0345.

First: TTCACTTGTCGTAAGACACTTTGGTGGTTGA [3d498]
Second: TTCACTTGTCGTAAGACACTTTGTGGGTTGA [3d492]
The fraction ligated of the first is higher: 0.014 for the first, 0.0104 for the second.

First: TTCACTTGTCGTAAGACATTGGATGGGTTGA [3d477]
Second: TTCACTTGTCGTAAGACATTTGATGGGTTGA [3d478]
The fraction ligated of the first is higher: 0.653 for the first, 0.0347 for the second.

Going from TTCACTTGTCGTAAGACATTTGGAGGGTTGA [3d480] to TTCACTTGTCGTAAGACATTTGGATGGGTTA [3d482], the fraction ligated rises from 0.0169 to 0.167.

First: TTCACTTGTCGTAAGACATTTGGATGGGTTG [3d483]
Second: TTCACTTGTCGTAAGACATTTGGATGGGTTGA [2d39]
The fraction ligated of the first is lower: 0.731 for the first, 0.776 for the second.

Going from TTCACTTGTCGTAAGACATTTGGATGGTTGA [3d481] to TTCACTTGTCGTAAGACATTTGGTGGGTTGA [3d479], the fraction ligated falls from 0.25 to 0.0115.

First: TTCACTTGTCGTAAGACCTTGGATGGGTTGA [3d470]
Second: TTCACTTGTCGTAAGACCTTTGATGGGTTGA [3d471]
The fraction ligated of the first is higher: 0.678 for the first, 0.164 for the second.

Compared with TTCACTTGTCGTAAGACCTTTGGAGGGTTGA [3d473], TTCACTTGTCGTAAGACCTTTGGATGGGTTA [3d475] is higher in fraction ligated: 0.073 for the first, 0.347 for the second.

Going from TTCACTTGTCGTAAGACCTTTGGATGGGTTG [3d476] to TTCACTTGTCGTAAGACCTTTGGATGGGTTGA [2d38], the fraction ligated rises from 0.77 to 0.793.

Going from TTCACTTGTCGTAAGACCTTTGGATGGTTGA [3d474] to TTCACTTGTCGTAAGACCTTTGGTGGGTTGA [3d472], the fraction ligated falls from 0.523 to 0.0157.

Going from TTCACTTGTCGTAAGACTTTGGATGGGTTGA [3d452] to TTCACTTGTCGTAAGCACTTGGATGGGTTGA [3d455], the fraction ligated falls from 0.752 to 0.231.

For TTCACTTGTCGTAAGCACTTTGATGGGTTGA [3d456], the fraction ligated was 0.0811.
